Tests used:
[1] = test system: plasmid pET24 DNA harboring the Syn5 RNAP gene (pET24-S5RNAP); experiment: Filter-binding transcription assay (3H-AMP incorporation); assay type: biochemical
Method: FIGS. 4A-4B depict the effect of temperature and pH on Syn5 RNAP activity. A) Temperature. B) pH. RNA polymerase activity was measured as described in Materials and Methods described herein. The reactions contained 6 mM MgCl2, 200 µM 4 rNTPs (^3H-ATP), 50 nM Syn5 RNAP and 4 nM template (pET24-S5RNAP). The pH was 8.0 for assays in A and the temperature was 24° C. for B. Reactions were terminated and the amount of AMP incorporated was measured at 3, 10, and 30 min. The AMP incorporation was linear in this time range and the data measured at 10 min are presented.
FIGS. 5A-5C depict reaction requirements for Syn5 RNAP. A) Effect of NaCl on Syn5 RNAP activity. B) Effect of KCl on Syn5 and T7 RNAP (dashed line) activity. C) MgCl2 concentration on Syn5 RNAP activity. Reactions contained 200 µM 4 rNTPs (^3H-ATP), 50 nM Syn5 RNAP and 4 nM template (pET24-S5RNAP). For A and B, reactions also contained 6 mM MgCl2. For C, 160 mM KCl was present. Reactions were terminated and the amount of AMP incorporated was measured at 2.5, 5, and 10 min. AMP incorporation was linear in this time range and the data measured at 10 min are presented.
Basic reaction mixtures contained 40 mM Tris-HCl (pH 8.0 unless otherwise specified), 2 mM spermidine, 10 mM DTT, 200 µM[…] GTP, C[…]P, UTP and ^3H-ATP (20 cpm/pmole), 1.5 U/µl RNaseOUT™, 50 nM Syn5 or T7 RNAP and 4 nM plasmid pET24 DNA harboring the Syn5 RNAP gene (pET24-S5RNAP) that contains a single Syn5 promoter in the RNAP gene and a single T7 promoter preceding the gene. Reaction mixtures were incubated at 24° C. unless otherwise specified.
(§1) For the assays described in FIG. 7, reaction mixtures contained 40 mM Tris-HCl (pH 8.0), 6 mM MgCl2, 2 mM spermidine, 10 mM DTT, 20 nM Syn5 or T7 RNAP, 20 nM pET24-S5RNAP DNA, 1 mM ^3H-ATP (20 cpm/pmole), CTP, UTP (or GTP), and varying amounts of GTP (or UTP). 160 mM KCl was added for the Syn5 RNAP reactions. After various times the reactions were stopped by the addition of 20 mM EDTA. 4 µl of the mixtures were then loaded onto Whatman DE81 filter paper disks and the disks were washed to remove the unincorporated ^3H-ATP. The amount of insoluble ^3H-AMP, corresponding to nucleotides incorporated into newly synthesized RNA, was measured using a scintillation counter. The data were analyzed using Prism software.

pET24-S5RNAP DNA = experiment: Catalytic efficiency at various ribonucleotide concentrations (filter-binding assay); assay type: biochemical; settings: for kcat/KmGTP / Km / kcat: GTP varied; for Km / KmGTP (results obtained with UTP): other NTPs 1 mM; for Km: 24° C., 5 min, read-out: apparent Km for GTP; for Km / kcat: 160 mM KCl for Syn5 RNAP, omitted for T7 RNAP; for kcat/KmGTP (results obtained with UTP) / kcatGTP (results obtained with UTP) / KmGTP (results obtained with UTP): UTP varied; for kcatGTP (results obtained with UTP) / KmGTP (results obtained with UTP): FIG. 7C/7D
Method: FIGS. 7A-7D depict a comparison of transcription efficiency of Syn5 and T7 RNAP at various ribonucleotide concentrations. A) Incorporation of NMP by Syn5 RNAP at various GTP concentrations. B) Incorporation of NMP by T7 RNAP at various GTP concentrations. C) Incorporation of NMP by Syn5 RNAP at various UTP concentrations. D) Incorporation of NMP by T7 RNAP at various UTP concentrations. Varied ribonucleotide concentrations were 7.8, 15.6, 31.3, 62.5, 125, 250, 500, 1000 µM while other NTPs were all at 1 mM, RNAP and template were both 20 nM, and the reaction time was 5 min at 24° C. 160 mM KCl was added for Syn5 RNAP reactions.
as §1

Row | Molecule | sensitivity to ionic strength ([1]; KCl titration, FIG. 5B) | kcat/KmGTP (pET24-S5RNAP DNA) [M⁻¹ s⁻¹] | Km (pET24-S5RNAP DNA) [µM] | kcat (pET24-S5RNAP DNA) [s⁻¹] | kcat/KmGTP (results obtained with UTP) (pET24-S5RNAP DNA) [M⁻¹ s⁻¹] | kcatGTP (results obtained with UTP) (pET24-S5RNAP DNA) [s⁻¹] | KmGTP (results obtained with UTP) (pET24-S5RNAP DNA) [µM] | potassium required for maximal activity [1] [mM] | metal ions in place of Mg2+ as cofactor ([1]; 10 mM Ca2+, Co2+, Cu2+ or Ni2+) | metal ions in place of Mg2+ as cofactor ([1]; 10 mM Zn2+ or Mn2+) | increase of activity by NaCl ([1]; 80 mM NaCl, 6 mM MgCl2) | stimulation of activity by KCl ([1]; 160 mM KCl, 6 mM MgCl2) | activity remaining ([1]; 300 mM KCl) [%] | pH of highest activity ([1]; 24° C.) | % of maximum activity ([1]; at 0° C.) [%] | % of maximum activity ([1]; at 37° C.) [%] | % of maximum activity ([1]; at 42° C.) [%] | Km ([1]; in the presence of 160 mM KCl, read-out: Km for MgCl2 as cofactor) [µM] | optimum temperature ([1]; pH 8.0, 6 mM MgCl2, 50 nM RNAP, 4 nM template) [°C]
1 | T7 RNAP: RNA polymerase encoded by bacteriophage T7, from New England Biolabs [reference compound] | highly sensitive to the ionic strength of the reaction | 90000 | 45.8 ± 9 | 4.1 | 290000 | 6.8 | 23.3 ± 5.5 | – | – | – | – | – | – | – | – | – | – | – | –
2 | Syn5 RNAP: single subunit DNA-dependent RNA polymerase from marine cyanophage Syn5, amino acid sequence SEQ ID NO:23 (protein, Amino acid sequence of a cyanophage Syn5 RNAP) MSFDLIARQLQRETEAAELARKRLQDARREANERSYASSNIESRKAIATFLDPIAQRIGERLFTLRRGTGAVDAAEVYKHLKNADHHHLALITMKTALDVLGKDPEPQIQQLTTAIGRNIQLELRLTYYAEENPELYKQASRFFHAGTGTRQKATVIKLKFNREGIEWDQWSRVTCHKVGQWLMLAMADVTGWIERATDRTSGGRKTKTRICYSREFLQHRDTILAAAEQLAFCQWPMLCPPIEWSNDHNGGYLSEQIRRVNPLIRKTGPLGTRKQGDIPLAMLNNLQGQAYKVNPEVLDIANHCYESNVTVGKFIRHAPLPVPPSPGEDCTEDQLTAYKRARREAEDFNAQISQKNWRTTEVMYVARKYADEASFWMPASFDYRGRVYFLNTALNPQGTDFDKALLYFAEEGPVNEWWLSFHVATTYGLDKETMVNRVQWARDNHELIDRIASDPVRHTEWHDADEPWCFLAACLEYKACVIDGTKQTSGLPIGIDATCSGLQHLAAMTRCGRTAALVNVTPTDKPADAYKTVAQASLKHLPKEQHEWITRKVTKRPVMCTPYGVTMSSARGYIRDQLVKDGHKEDLRSPGVLNGIVKAIFNEAIPEVIPGPVQVMAWLKRSAGQIIDRGDSTITWTTPSGFEVVQDLKKSKTYEVKTRIMGGARIKLQVGDGFTDEPDRDHHKSALAPNVVHSNDASLLHLTFAFWDKPFTVIHDCVLGRSCDMDQMGSDIRLHFAEMYKADVMQDWADQVGVELPVDLIKNTLDIDSVNQSLYFFS | – | 180000 | 13.9 ± 5.6 | 2.5 | 380000 | 2.8 | 7.4 ± 1.5 | 160 | cannot replace Mg^2+ | A small amount of activity | two-fold | three-fold | 10 | 8.0 | 15 | 8 | 2 | ~2500 | 24
